From patent US12065505B2, “Antibodies and antigen binding peptides for factor XIa inhibitors and uses thereof” (Bristol-Myers Squibb Company, priority 2021, dated 2024)
Residue numbers refer to the chain shown, from its start. Like-named read-outs stand apart in the source and are kept apart here.

B1: 26D5-75768-348-A10-mAb: human IgG1f/kappa mAb; VH SEQ ID NO: 56, VL SEQ ID NO: 89 (antibody, V domains shown)
VH: EVQLVESGGGLIQPGGSLRLSCAASGFTVSSNAVSIVRQAPGKGLEWVAYIYPGGRTYYADSVKGRFTISRDNSKNTLYLQMNSLRAEDTAVYYCTIGGFGGGDYWGQGTLVTVSS
VL: DIQMTQSPSSVSASVGDRVTITCRASQGISSNNQWYQQKPGKAPKLLIYYASSLQSGVPSRFSGSGSGTDFTLTISSLQPEDFATYYCQQGNEFPLTFGGGTKVEIK
B2: P1-073708-1: 26D5 parent Fab (Fab 26D5-GV-Q); VH SEQ ID NO: 82, VL SEQ ID NO: 99 (antibody, V domains shown)
VH: B1 VH with A33Y, V34M, I36W, A49S, Y50F, P53S, T96A, I97R
VL: B1 VL with N32W, N33L, Q34A, Y50A, G91A, E93S
B3: 26D5-296-C07-mAb: human IgG1f/kappa mAb; VH SEQ ID NO: 77, VL SEQ ID NO: 94 (antibody, V domains shown)
VH: B1 VH with F27I, A33Y, V34M, I36W, A49S, Y50F, P53S, T96A, I97R
VL: B1 VL with G28Y, N33L, Q34A, Y50A, G91A, E93S
B4: 26D5-75202-343-A09-mAb: human IgG1f/kappa mAb; VH SEQ ID NO: 54, VL SEQ ID NO: 86 (antibody, V domains shown)
VH: B1 VH with V34M, I36W, A49S, T96A, I97R, G98A
VL: B1 VL with S30Y, N33L, Q34A, Y50A, G91A
B5: 26D5-296-D03-mAb: human IgG1f/kappa mAb; VH SEQ ID NO: 76, VL SEQ ID NO: 88 (antibody, V domains shown)
VH: B1 VH with A33Y, V34M, I36W, A49S, Y50F, P53S, R56E, Y58F, T96A, I97R
VL: B1 VL with N33L, Q34A, Y50A, G91A, E93S
B6: 26D5-75229-343-A10-mAb: human IgG1f/kappa mAb; VH SEQ ID NO: 52, VL SEQ ID NO: 84 (antibody, V domains shown)
VH: B1 VH with V34M, I36W, A49S, T96A, I97R, G98A, G103P
VL: B1 VL with N33L, Q34A, Y50A, G91A, E93Q
B7: P1-074468-1: first round optimization progeny Fab; VH SEQ ID NO: 62, VL SEQ ID NO: 88 (antibody, V domains shown)
VH: B1 VH with T28Q, V34M, I36W, A49S, Y50F, T96A, I97R
VL: B1 VL with N33L, Q34A, Y50A, G91A, E93S
B8: 24H1-GQTV-Fab-LONG: antibody Fab fragment; VH SEQ ID NO: 80, VL SEQ ID NO: 98; sequence in Table 3 (antibody, V domains shown)
VH: B1 VH with S31R, A33Y, V34M, I36W, A49S, Y50F, P53S, R56S, T96A, I97R
VL: B1 VL with N32W, N33L, Q34A, Q38H, Y50A, G91A, E93S
B9: 26D5-75203-343-B09-mAb: human IgG1f/kappa mAb; VH SEQ ID NO: 54, VL SEQ ID NO: 87 (antibody, V domains shown)
VH: B1 VH with V34M, I36W, A49S, T96A, I97R, G98A
VL: B1 VL with N33L, Q34A, Y50A, S53T, G91A
B10: 26D5-GVR-Q-FT-Fab-LONG: antibody Fab fragment; VH SEQ ID NO: 81, VL SEQ ID NO: 99; sequence in Table 3 (antibody, V domains shown)
VH: B1 VH with S31R, A33Y, V34M, I36W, A49S, Y50F, P53S, T96A, I97R
VL: B1 VL with N32W, N33L, Q34A, Y50A, G91A, E93S
B11: 26D5-75214-343-F06-mAb: human IgG1f/kappa mAb; VH SEQ ID NO: 53, VL SEQ ID NO: 85 (antibody, V domains shown)
VH: B1 VH with V34M, I36W, A49S, Y50F, T96A, I97R, G98A, G103P
VL: B1 VL with N33L, Q34A, Y50A, G91A

Experiments:
[1] = SPR (Biacore) Protein A mAb capture, Compound A injected; conditions: 37° C., binding to Compound A, for rank ordering only
Protocol: The binding of hybridoma expressed 26D5 parent mAb (VH SEQ ID NO: 83 and VL SEQ ID NO: 98 in IgG1 f format)(P1-072224) and affinity matured mAbs to Compound A was examined by SPR (Biacore™) using a protein A capture method. The running buffer was 1×PBS (phosphate buffered saline, pH 7.4) with 0.05% Tween 20 and 2% DMSO. Binding experiments were carried out at 37° C. Protein A was coated on a CM5 S-series sensor chip (Cytiva, Cat. No. 29149603) at high density (2000+ RUs of protein A). The immobilization of protein A was carried out using the standard amine coupling immobilization procedure recommended by the manufacturer. The affinity matured antibody was then captured at a concentration of 2 ug/mL on the protein A surface at a flow rate of 3 uL/min for 2 minutes. Compound A was then injected over the captured antibody at concentrations spanning 100-3 nM (100, 50, 25, 12.5, 6.25, 3.125 nM) (FIG. 10) and for screening concentrations spanning 100-3 nM (100, 33, 11 nM) for 2 minutes at a flow rate of 100 uL/min and allowed to dissociate for at least 450 seconds. The chip surface was regenerated after each cycle with a 40 second pulse of 10 mM Glycine, pH 1.5. Background binding to the protein A surface alone was used to subtract non-specific binding. All experiments were run on a Biacore T200 surface plasmon resonance instrument using Biacore T200 Control software v. 2. Data analysis was performed using Biacore T200 evaluation software v 3.1. Apparent affinities were determined for rank ordering only since dissociation rates were too slow to be measured by Biacore. The names of the mAbs in Table 10 refer to mAbs having the H and L chain sequences of the corresponding Fabs in Table 3 in an IgG1f format.

[2] = Competitive TR-FRET assay modified for mAbs and Fabs (T0, T24, T48); type: binding; conditions: 37° C.; for T24 hr IC50 shift: IC50 shift at 24 hr relative to T0; for T48 hr IC50 shift: IC50 shift at 48 hr relative to T0
Protocol: A competitive TR-FRET (time-resolved fluorescence resonance energy transfer) assay was developed to rank-order the dissociation of α-Compound A mAbs from Compound A as equilibrium is reached at 37° C. The assay buffer was HBS-N (10 mM HEPES, 150 mM NaCl, pH 7.4; GE Healthcare), 0.1% (w/v) BSA (bovine serum albumin; Sigma), 2% DMSO (dimethyl sulfoxide; Sigma). All reagents were prepared in assay buffer and dispensed in equal volumes into white 384 microplates with final volume of 20 μl per well at the following final concentrations: 4 nM COMPOUND 5, the biotinylated analog of COMPOUND 2, a 100 0.1 nM 7-pt titration of human α-Compound A antibodies, 0.1 nM europium-labeled α-mouse IgG (LANCE Eu-W1024; PerkinElmer), 5 nM streptavidin-D2 (Cisbio), and 4 nM mAb 26D5 VH_A10G_Y33A_S53P_M89V_G95A; VK_W32N_H38Q (P1-075621, the second-round optimization parent 26D5-295-B08 formatted with mouse IgG Fc). COMPOUND 5 and α-Compound A antibody titrations were added first to the microplate, and were subjected to an initial incubation at 37° C., 1000 rpm, for one hour to facilitate antibody binding to the compound. After the initial incubation period, the europium α-mouse IgG, streptavidin-D2, and 26D5-mouse IgG (P1-075621) were added sequentially, then the plate was returned to 37° C., 1000 rpm incubation. Microplates were read using a Perkin Elmer EnVision plate reader, and the measured FRET signal was defined as [665 nm]/[620 nm]*10,000. Microplates were read at 30 minutes (T0) and after 24 hour (T24) intervals. For each antibody titration, the FRET signal was converted to % Inhibition relative to wells without α-Compound A antibody: (100 ((FRET at [antibody concentration]/FRET at 0 nM)*100). The % inhibition antibody titrations were plotted using TIBCO Spotfire (v.7), and the IC50 was determined using a 4-parameter model curve fit. The IC50s at each timepoint were reported, as well as the IC50 curve shift relative to T0. An IC50 curve shift indicated α-Compound A antibody dissociation from the biotinylated compound as the assay reached equilibrium, which subsequently allowed 26D5-mouse IgG1 (P1-075621) competitor to bind and generate the FRET signal detected in the assay.
The competitive TR-FRET assay defined above was also modified to assess optimized 26D5 antibody progeny that were reformatted as Fabs. The α-Compound A antibody and Fab titration series were extended to 250 0.244 nM (11-pt titration), and replicates of each concentration were collected in quadruplicate. The assay incubation was extended to include an additional 48 hr timepoint to ensure equilibrium was reached, and T48 hr IC50 and IC50 shifts were reported. The % inhibition titrations were plotted in Graphpad Prism (v.8) and fit to a 4-parameter model. All other experimental setup conditions were otherwise identical to the antibody TF-FRET assay.
Competitive FRET data collected for affinity-optimized α-Compound A 26D5 progeny comparing human antibodies and Fabs are shown in FIG. 14 and Table 13. Each panel represents a single α-Compound A sequence, with antibody (mAb, solid lines, circles) and Fab (dotted lines, triangles) formats overlaid. […] The names of the mAbs/Fabs in Table 13 refer to the corresponding sequences in Tables 1-3. All mAbs listed in Table 13 were in a human IgG1f/LC kappa format.

[3] = SPR (Biacore) on chip coated with BSA conjugated to COMPOUND 2; type: binding; conditions: 37° C., Fab over COMPOUND 2-BSA surface; for Ka / koff, dissociation rate constant: apparent; for Kd: apparent affinity
Protocol: The binding of the first round affinity matured antibody Fab fragments to conjugated versions of Compound A was examined by SPR (Biacore™) using a CM5 S-series sensor chip (Cytiva, Cat. No. 29149603) coated with BSA previously conjugated to COMPOUND 2, COMPOUND 3 or COMPOUND 1. The immobilization level was 150-250 RUs. The running buffer was 1×PBS (phosphate buffered saline, pH 7.4) with 0.05% Tween 20. […] The antibody Fab fragment at a concentration of between 200-0.8 nM was injected over the BSA-compound coated surface for 2 minutes at a flow rate of 30 uL/min. The antibody Fab fragment was then allowed to dissociate for 15 minutes. The chip surface was regenerated after each cycle with a 1 minute pulse of 10 mM Glycine, pH 2, and a 1 minute pulse of 50 mM NaOH. All experiments were run on the same equipment and analyzed with the same software as described before. Apparent affinities were determined for rank ordering only since dissociation rates were too slow to be measured by Biacore. Comparative experiments with selected mAbs were also conducted in a similar fashion (see FIG. 11).

[4] = apparent affinity, read-out: KD
[5] = read at 30 minutes (T0), competitor 26D5-mouse IgG (P1-075621), read-out: T0 IC50

Molecule | Kd [1, 4] [nM] | Ka ([1]; apparent) [M⁻¹ s⁻¹] | Kd ([1]; apparent) [s⁻¹] | IC50 ([2]; 24 hr, read-out: T24 hr IC50) [nM] | IC50 ([2]; 48 hr, read-out: T48 hr IC50) [nM] | T24 hr IC50 shift [2] [nM] | T48 hr IC50 shift [2] [nM] | IC50 [2, 5] [nM] | Ka [3] [M⁻¹ s⁻¹] | koff, dissociation rate constant [3] [s⁻¹] | Kd [3] [nM]
B1 | < 0.1 | 3.8e+06 | <0.00041 | 2.2 | 2.3 | 1.0 | 1.1 | 1.2 |  |  | 
B2 |  |  |  | > 28.2 | > 28.8 | >25.7 | >26.2 | 2.6 |  |  | 
B3 | 1.4 | 950000 | 0.0014 |  |  |  |  |  |  |  | 
B4 | < 0.09 | 590000 | <5e-05 | 2.5 | 2.9 | 1.1 | 1.5 | 1.4 |  |  | 
B5 | 0.71 | 1.7e+06 | 0.0012 |  |  |  |  |  |  |  | 
B6 | < 0.07 | 770000 | <5e-05 | 2.4 | 2.5 | 1.1 | 1.1 | 1.3 |  |  | 
B7 |  |  |  | > 38.2 | > 43.1 | >36.0 |  | 2.2 |  |  | 
B8 |  |  |  |  |  |  |  |  | 790000 | 0.001 | 1.3
B9 | < 0.05 | 1.2e+06 | <5e-05 | 3 | 3.1 | 0.4 | 0.5 | 2.6 |  |  | 
B10 |  |  |  |  |  |  |  |  | 1.3e+06 | 0.0016 | 1.3
B11 | < 0.05 | 1.2e+06 | <5e-05 | 2.5 | 2.7 | 1.3 | 1.4 | 1.3 |  |  | 
